The assay deals with T1, human Chi3l1 (chitinase 3-like-1) (human, UniProt P36222 22-383).
T1 construct: also called YKL-40; recombinant (r) human Chi3l1
Description: Western blot / ELISA detection of Chi3l1, denaturing and non-denaturing. Background: Immunoblotting shows a protein as a band on a membrane.

T1 sequence (P36222 22-383 limits assumed): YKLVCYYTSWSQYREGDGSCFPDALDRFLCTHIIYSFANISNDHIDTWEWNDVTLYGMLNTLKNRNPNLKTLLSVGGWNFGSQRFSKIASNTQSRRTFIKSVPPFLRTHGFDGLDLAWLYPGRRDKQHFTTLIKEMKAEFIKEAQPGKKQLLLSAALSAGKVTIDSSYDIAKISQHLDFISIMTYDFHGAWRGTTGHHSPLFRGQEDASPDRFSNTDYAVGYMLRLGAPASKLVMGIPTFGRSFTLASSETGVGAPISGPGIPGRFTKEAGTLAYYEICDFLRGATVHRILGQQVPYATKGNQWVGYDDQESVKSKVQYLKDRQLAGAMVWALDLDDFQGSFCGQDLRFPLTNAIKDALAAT

B1: FRG monoclonal antibody (anti-Chi3l1) (antibody, IgG2b, V domains shown)
VH: QIQLVQSGPELKKPGETVKISCKASGYTFTNYGMNWVKQAPGKGLKWMGWINTYTGEPTYADDFKGRFAFSLETSASTAYLQINNLRNEDMSTYFCARLGYGKFYVMDYWGQGTSVTVSS
VL: DVVMTQTPLSLPVSLGDQASISCRSSQSLVHSNGNTYLHWYLQKPGQSPKLLIYKVSNRFSGVPDRFSGSGSGTDFTLKISRVEAEDLGVYFCSQSTHVTWTFGGGTKLEIK
notes: The antibody is described as an IgG2b Kappa monoclonal; also called FRG mAb; FRG antibody
With B1, the binding result is “binds”.

Values taken from patent US20190062457A1 (BROWN UNIVERSITY, published 2019).
